Assay results reported in publication PMC2650391 (2009).

Biological target: Histone H3K4me3 peptide (Homo sapiens, UniProt P68431)

Kd: 7.9 µM
B1: ING4 PHD (protein)
chain: PNEPTYCLCHQVSYGEMIGCDNPDCSIEWFHFACVGLTTKPRGKWFCPRCSQERKK
